“Also recorded” adds a separate entry of the source.
Tests used:
NARC1 = experiment: Autoprocessing of NARC1 transiently expressed in COS-7 cells, Western blotting; type: cell-based, rat; details: C-terminal myc/His fusion transiently expressed in COS-7 cells, 60 kD processing product on Western blot
Method: The wild-type NARC1-myc/His clone was transiently expressed in COS-7 cells. The cells were then harvested, lysed, and the protein extracted. Polyacrylamide gel electrophoresis was then carried out on the protein extracts, followed by Western blotting. The resulting membranes were probed using both anti-myc- and NARC1-specific antibodies. Routine techniques and protocols were followed. See, e.g., Ausubel et al.(1998), supra.
This cleavage event maps to approximately the junction between the pro-domain and the enzymatic domain.
Autoprocessing of NARC1 was investigated as follows. COS-7 cells were co-transfected with the following EGFP and myc plasmids: (A) wild-type NARC1-myc and wild-type NARC1-EGFP; (B) S385A NARC1-myc and S385A NARC1-EGFP; and (C) wild-type NARC1-myc and S385A NARC1-myc. The cells were then harvested, lysed, and the protein extracted. Polyacrylamide gel electrophoresis was then carried out on the protein extracts, followed by Western blotting. The resulting membranes were sequentially probed using first the anti-myc and then the anti-EGFP monoclonal antibodies (Abs). Thus, the experiment allowed sequential detection of the separate NARC1 products encoded from the two co-transfected plasmids.
As indicated above, a series of C-terminal truncation mutants were generated. The truncation NARC1-myc/His clones were transiently expressed in COS-7 cells. The cells were then harvested, lysed, the protein extracted, and polyacrylamide gel electrophoresis carried out on the protein extracts. Western analysis was then carried out using both anti-myc and NARC1-specific antibodies.

[1] = tested on: cerebellar granule neurons (CGNs); experiment: Apoptosis after transient expression of NARC1-EGFP constructs in CGNs, Laser-Scanning Cytometry; type: cell-based, rat; details: for Resulting Cell Death Activity: EGFP construct transiently expressed in CGNs, percentage of GFP-positive cells undergoing apoptosis
Description: Cerebellar granule neurons (CGNs) were transfected with a NARC1-enhanced green fluorescent protein (EGFP) expression construct (with the EGFP sequences located at the carboxy terminus of the fusion protein). Unless otherwise indicated, the construct utilized in the following experiments contained 2073 base pairs of the rat NARC1 transcript set forth in FIG. 5. Specifically, this corresponds to nucleotides 205-2277 and amino acid residues 56-746 of SEQ ID NO:4 and SEQ ID NO:3, respectively. The polypeptide sequence encoded by the NARC1 insert utilized herein has been set forth as SEQ ID NO:9 herein. The nucleotide sequence of this insert has been set forth as SEQ ID NO:10.
To investigate NARC1-mediated neuronal cell death, transient expression of the EGFP clones was carried out in cerebellar granule neurons (CGNs). These studies are set forth in detail as follows.

B1: C-terminal truncation V507: NARC1 terminating at residue V507; much of the CRR removed (protein)
chain: MGIRCSTWLRWPLSPQLLLLLLLCPTGSRAQDEDGDYEELMLALPSQEDSLVDEASHVATATFRRCSKEAWRLPGTYVVVLMEETQRLQVEQTAHRLQTWAARRGYVIKVLHVFYDLFPGFLVKMSSDLLGLALKLPHVEYIEEDSLVFAQSIPWNLERIIPAWQQTEEDSSPDGSSQVEVYLLDTSIQSGHREIEGRVTITDFNSVPEEDGTRFHRQASKCDSHGTHLAGVVSGRDAGVAKGTSLHSLRVLNCQGKGTVSGTLIGLEFIRKSQLIQPSGPLVVLLPLAGGYSRILNTACQRLARTGVVLVAAAGNFRDDACLYSPASAPEVITVGATNAQDQPVTLGTLGTNFGRCVDLFAPGKDIIGASSDCSTCYMSQSGTSQAAAHVAGIVAMMLNRDPALTLAELRQRLILFSTKDVINMAWFPEDQRVLTPNRVATLPPSTQETGGQLLCRTVWSAHSGPTRTATATARCAPEEELLSCSSFSRSGRRRGDRIEAIGGQQV
modifications: mutant of rat sequence truncated mutant ends at amino acid Val507
notes: NARC1 terminating at residue V507; much of the CRR removed
- Autoprocessing Activity (NARC1): Marked increase in
- Autoprocessing Activity (NARC1; listed as V507 C-terminal truncation mutant): markedly increased level of autoprocessing
- Autoprocessing Activity (NARC1; listed as V507 truncation): increased rate of processing
- BAF sensitivity of induced cell death ([1]; CGNs, 100 μM BAF): insensitive.
- Resulting Cell Death Activity [1]: Induces wild type

B2: H225W: Full-length NARC1 point mutant; mutation of the active site histidine (protein)
chain: MGIRCSTWLRWPLSPQLLLLLLLCPTGSRAQDEDGDYEELMLALPSQEDSLVDEASHVATATFRRCSKEAWRLPGTYVVVLMEETQRLQVEQTAHRLQTWAARRGYVIKVLHVFYDLFPGFLVKMSSDLLGLALKLPHVEYIEEDSLVFAQSIPWNLERIIPAWQQTEEDSSPDGSSQVEVYLLDTSIQSGHREIEGRVTITDFNSVPEEDGTRFHRQASKCDSWGTHLAGVVSGRDAGVAKGTSLHSLRVLNCQGKGTVSGTLIGLEFIRKSQLIQPSGPLVVLLPLAGGYSRILNTACQRLARTGVVLVAAAGNFRDDACLYSPASAPEVITVGATNAQDQPVTLGTLGTNFGRCVDLFAPGKDIIGASSDCSTCYMSQSGTSQAAAHVAGIVAMMLNRDPALTLAELRQRLILFSTKDVINMAWFPEDQRVLTPNRVATLPPSTQETGGQLLCRTVWSAHSGPTRTATATARCAPEEELLSCSSFSRSGRRRGDRIEAIGGQQVCKALNAFGGEGVYAVARCCLLPRVNCSIHNTPAARAGPQTPVHCHQKDHVLTGCSFHWEVENLRAQQQPLLRSRHQPGQCVGHQEASVHASCCHAPGLECKIKEHGIAGPAEQVTVACEAGWTLTGCNVLPGASLPLGAYSVDNVCVARIRDAGRADRTSEEATVAAAICCRSRPSAKASWVHQ
modifications: mutant of rat sequence mutating amino acid His225Trp of SEQ ID NO9
- Autoprocessing Activity (NARC1): reduces autoprocessing; also recorded: Reduced processing
- Resulting Cell Death Activity [1]: essentially a wild-type phenotype; also recorded: no effect on the cell death phenotype

Reference: patent US20030119038A1, “NARC1, novel subtilase-like homologs” (priority 1999, published 2003)
